Experimental findings from patent US20090118135A1, “METHODS AND COMPOUNDS FOR REGULATING APOPTOSIS” (The Burnham Institute, priority 2007, published 2009) are described below.

The target in one assay is GST-Bcl-2 (Homo sapiens, UniProt P10415). As to the kind of experiment: FITC-TR3-9-r8 direct binding fluorescence polarization assay, Bcl-2. Details: their C-terminal transmembrane domains (˜20 amino acids) were deleted to enhance protein solubility; made in house; host or cells: E. coli (BL21 Star (DE3); XL-1 Blue), pGEX-4T-1. The note with it: FIG. 2A; result in words. Background: In fluorescence polarisation assays a small probe gives low polarisation when free and higher when bound to something large.
GST-Bcl-2, sequence (P10415 1-218 limits assumed): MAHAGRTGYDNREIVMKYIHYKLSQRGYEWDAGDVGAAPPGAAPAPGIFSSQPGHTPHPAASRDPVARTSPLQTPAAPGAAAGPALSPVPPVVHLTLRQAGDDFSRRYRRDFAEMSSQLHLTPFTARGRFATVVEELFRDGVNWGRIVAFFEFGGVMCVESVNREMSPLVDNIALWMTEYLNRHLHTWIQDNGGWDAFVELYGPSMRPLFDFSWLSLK

Another assay has as its target T1, GST-Bfl-1 (Homo sapiens, UniProt Q16548).
T1 construct: lacking their C-terminal transmembrane domains (about the last 20 amino acids) (“ΔTM”); made in house; host or cells: XL-1 Blue E. coli, pGEX 4T-1
T1 sequence (Q16548 1-155 limits assumed): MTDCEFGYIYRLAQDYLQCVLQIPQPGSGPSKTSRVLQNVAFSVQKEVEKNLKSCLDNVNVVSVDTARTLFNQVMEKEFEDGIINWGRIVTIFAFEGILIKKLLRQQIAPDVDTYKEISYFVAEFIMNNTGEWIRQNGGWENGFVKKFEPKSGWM
As to the kind of experiment: FITC-TR3-9-r8 direct binding fluorescence polarization assay, Bfl-1. Particulars: FIG. 2B; result in words.

For a further assay, the target named is T2, GST-Bcl-W (Homo sapiens, UniProt Q92843).
T2 construct: GST-fusion proteins containing ΔTM versions of Bcl-2, Bcl-XL, Bfl-1, Mcl-1, Bcl-W, and Bcl-B; made in house
T2 sequence (Q92843 1-173 limits assumed): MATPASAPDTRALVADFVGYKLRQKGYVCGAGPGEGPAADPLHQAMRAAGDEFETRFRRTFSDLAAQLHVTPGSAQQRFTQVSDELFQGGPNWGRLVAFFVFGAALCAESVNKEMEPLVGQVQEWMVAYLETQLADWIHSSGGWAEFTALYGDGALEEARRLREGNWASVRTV
Briefly: FITC-TR3-9-r8 direct binding fluorescence polarization assay, Bcl-W. Particulars: FIG. 2B; result in words.

In the next assay the target is T3, GST-Bcl-B (Homo sapiens, UniProt Q9HD36).
T3 sequence (Q9HD36 1-182 limits assumed): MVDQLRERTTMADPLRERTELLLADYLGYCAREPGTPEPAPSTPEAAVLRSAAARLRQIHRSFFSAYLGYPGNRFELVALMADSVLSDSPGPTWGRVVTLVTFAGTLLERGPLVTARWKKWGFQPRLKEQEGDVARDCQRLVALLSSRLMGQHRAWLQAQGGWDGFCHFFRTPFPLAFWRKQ
As to the kind of experiment: FITC-TR3-r8 direct binding fluorescence polarization assay, Bcl-B. Details: their C-terminal transmembrane domains (˜20 amino acids) were deleted to enhance protein solubility; made in house; host or cells: E. coli (BL21 Star (DE3); XL-1 Blue), pGEX-4T-1. The note with it: FIG. 2A; result in words.

For a further assay, the target named is T4, GST-Bcl-XL (Homo sapiens, UniProt Q07817).
T4 construct: lacking their C-terminal transmembrane domains (about the last 20 amino acids) (“ΔTM”); made in house; host or cells: XL-1 Blue E. coli, pGEX 4T-1
T4 sequence (Q07817 1-212 limits assumed): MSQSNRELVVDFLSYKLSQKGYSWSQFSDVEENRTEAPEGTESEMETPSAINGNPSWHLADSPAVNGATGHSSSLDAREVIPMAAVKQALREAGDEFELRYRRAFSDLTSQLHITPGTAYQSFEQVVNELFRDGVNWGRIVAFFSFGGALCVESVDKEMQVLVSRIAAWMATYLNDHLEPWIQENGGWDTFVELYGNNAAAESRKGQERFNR
As to the kind of experiment: FITC-TR3-9-r8 direct binding fluorescence polarization assay, Bcl-XL. The note with it: FIG. 2A; result in words.

The test system of a further assay is HeLa Tet-On (HTO1) cells. Briefly: Cell viability (ATPlite) in control HeLa Tet-On cells. The assay is classed as cell-based. Particulars: cells do not express Bcl-B; result in words. On the procedure:
(§1) FIG. 24A is a photograph of a blot wherein HeLa Tet-On (HTO1) and HeLa Tet-On-Bcl-B (HTO2) cells were treated with or without doxycycline (dox) for 24 h to induce their tetracycline-responsive promoters. Protein lysates were collected, and immunoblotting was used to analyze Bcl-B and Hsc70 (for loading control) expression. In FIG. 24B the cells were treated with or without doxycycline for 24 h, and then with staurosporine at the indicated concentrations for 24 h. Cell viability was measured using ATPlite. In FIG. 24C HeLa Tet-On-Bcl-B (HTO2) cells were treated with or without doxacycline as above. Compounds were then added at the indicated concentrations, and cell viability was measured 24 h later using ATPlite. The data shown represent mean±standard deviation (n=3).
(§2) Cells were seeded in 96-well plates at 5,000 cells/well in 100 μL of growth medium and allowed to incubate for 24 h. Afterwards, cells were incubated in the presence or absence of doxycycline (1 μg/mL) for another 24 h (to induce Bcl-B expression). Compounds were then added, as indicated, in a volume of 5 μL. The next day, cell viability was measured using the ATPlite Luminescence ATP Detection System (PerkinElmer, Waltham, Mass.) according to the manufacturer's specifications.
A general note: ATP-based viability assays read luminescence as a measure of living cells.

Assay [1] relates to HeLa Tet-On-Bcl-B (HTO2) cells. Briefly: Cell viability (ATPlite) in HeLa Tet-On-Bcl-B cells with or without doxycycline. The assay is classed as cell-based. The note with it: result in words. On the procedure: as §1
HeLa Tet-On-Bcl-B cells were generated by stably transfecting the HeLa Tet-On cell line (Clontech, Mountain View, Calif.) with a pTRE2hyg vector (Clontech) containing the Bcl-B gene, using lipofectAMINE PLUS (Invitrogen, Carlsbad, Calif.). Briefly, cells were seeded overnight and transfected at 50% confluency for 3 h. After 24 h, the cells were re-seeded at <10% confluence and cultured in media (DMEM with 10% Tet System Approved FBS (Clontech)) containing G418 (100 μg/mL) and hygromycin B (300 μg/mL) for pTet-On and pTRE2hyg/Bcl-B plasmid maintenance, respectively. Positive foci resistant to both antibiotics were expanded. Colonies were then cultured in the presence or absence of doxycycline (Clontech, 1 μg/mL) for 16 h, and induced Bcl-B expression was confirmed by Western blot analysis. A previously developed polyclonal Bcl-B antibody^17 and an Hsc70 antibody (for protein concentration comparison; Santa Cruz Biotechnology, Santa Cruz, Calif.) were used.
as §2

Assay [2] has as its target GST-Bfl-1 ΔTM [GST: P08515]. Briefly: Bfl-1 FPA plate, well F12: FITC-BH3 and GST-Bfl-1 without compound.
Assay [3] addresses GST-Bfl-1 ΔTM [GST: P08515]. Briefly: Bfl-1 FPA plate, well D12: FITC-BH3 and GST-Bfl-1 without compound.
Assay [4] has as its target GST-Bfl-1 ΔTM [GST: P08515]. As to the kind of experiment: Bfl-1 FPA plate, well C12: FITC-BH3 and GST-Bfl-1 without compound.
In assay [5] the target is GST-Bfl-1 ΔTM [GST: P08515]. As to the kind of experiment: Bfl-1 FPA plate, well E12: FITC-BH3 and GST-Bfl-1 without compound.
Assay [6] concerns the target T5, GST (glutathione S-transferase control protein) (UniProt P08515 1-218 = GST).
T5 construct: Negative control protein; also called control GST protein
Briefly: fluorescence polarization, 5 nM FITC-Bid BH3 with various concentrations of GST.

The target of assay [7] is GST-Bfl-1 ΔTM [GST: P08515]. Briefly: Bfl-1 FPA plate, well B12: FITC-BH3 and GST-Bfl-1 without compound.
The target in assay [8] is GST-Bfl-1 ΔTM [GST: P08515]. Briefly: Bfl-1 FPA plate, well G12: FITC-BH3 and GST-Bfl-1 without compound.
The target in assay [9] is GST-Bfl-1 ΔTM [GST: P08515]. As to the kind of experiment: Bfl-1 FPA plate, well H12: FITC-BH3 and GST-Bfl-1 without compound.
Assay [10] addresses GST-Bfl-1 ΔTM [GST: P08515]. As to the kind of experiment: Bfl-1 FPA plate, well A12: FITC-BH3 and GST-Bfl-1 without compound (peptide-alone wells 43-52 mP).

The star is where a group is joined. FITC = O=C1OC2(c3ccc(O)cc3Oc3cc(O)ccc32)c2ccc(NC(=S)*)cc21; Ahx = NCCCCCC(=O)O

T5 sequence (P08515 whole entry): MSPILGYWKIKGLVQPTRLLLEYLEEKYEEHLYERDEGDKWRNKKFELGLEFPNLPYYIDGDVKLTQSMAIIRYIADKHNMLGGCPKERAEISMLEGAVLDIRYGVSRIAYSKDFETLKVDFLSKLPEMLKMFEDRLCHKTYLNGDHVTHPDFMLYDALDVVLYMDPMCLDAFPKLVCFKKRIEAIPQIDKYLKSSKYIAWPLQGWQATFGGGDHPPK

Consider `CC(C)C[C@H](NC(=O)[C@H](CC(C)C)NC(=O)[C@H](CO)NC(=O)[C@H](Cc1c[nH]cn1)NC(=O)[C@H](CC(C)C)NC(=O)[C@H](CO)NC(=O)[C@H](CCCNC(=N)N)NC(=O)[C@H](CO)NC(=O)[C@H](Cc1ccccc1)NC(=O)CCCCCNC(=S)Nc1ccc2c(c1)C(=O)OC21c2ccc(O)cc2Oc2cc(O)ccc21)C(=O)NCC(=O)NCCCCCC(=O)N[C@H](CCCNC(=N)N)C(=O)N[C@H](CCCNC(=N)N)C(=O)N[C@H](CCCNC(=N)N)C(=O)N[C@H](CCCNC(=N)N)C(=O)N[C@H](CCCNC(=N)N)C(=O)N[C@H](CCCNC(=N)N)C(=O)N[C@H](CCCNC(=N)N)C(=O)N[C@H](CCCNC(=N)N)C(N)=O` [FITC-TR3-9-r8], for which the “binding to GST-Bcl-2” value on GST-Bcl-2 is “Binding to GST-Bcl-2”. The “binding to GST-Bfl-1” value on GST-Bfl-1 was “Binding to GST-Bfl-1”. The “binding to GST-Bcl-W” value at GST-Bcl-W is given as “but not GST-Bcl-W”. Further, the “binding to GST-Bcl-B” value at GST-Bcl-B was “Binding to GST-Bcl-2 and GST-Bcl-B”. In addition, the “binding to GST-Bcl-XL” value on GST-Bcl-XL is on record as “but not GST-Bcl-XL”.

As for `CN[C@@H]1C[C@H]2O[C@@](C)([C@@H]1OC)n1c3ccccc3c3c4c(c5c6ccccc6n2c5c31)C(=O)NC4` [staurosporine], in the assay on HeLa Tet-On (HTO1) cells, the “effect of doxycycline on compound-induced cell death in control cells” value was “the same level of staurosporine-induced cell death whether or not doxycycline was added”. Also, the “effect of doxycycline-induced Bcl-B expression on compound-induced cell death” value in assay [1] is “more resistant to staurosporine-induced cell death”.

Consider {FITC-Ahx}-EDIIRNIARHLAQVGDSMDR-NH2 (also called FITC-BH3 peptide; FITC-BH3) [FITC-Bid BH3 peptide], for which the fluorescence polarization (mP) in assay [2] amounted to 163 mP; in [3], 158 mP; in [4], 166 mP; in assay [5], 157 mP; in assay [7], 160 mP; in assay [8] it was 155 mP. The fluorescence polarization (mP) in assay [9] was 163 mP; in [10] it was 148 mP. For the same molecule, the binding result in assay [6] is listed as “no binding”.
